Two substances from paper doi:10.1101/2020.04.14.041046 can be followed below.

The assay has as its target actin filaments (rabbit skeletal muscle actin) (rabbit) (UniProt P68135). The assay is described as follows: co-sedimentation.

With “Rng2CHD fused with GFP to its N-terminus via a 16-residue linker (GFP-Rng2CHD) (domain or fragment)”, the stoichiometry N stood at 1.
In turn, “calponin-homology actin binding domain of fission yeast IQGAP Rng2 (Rng2CHD) (domain or fragment)” had an equilibrium dissociation constant (Kd) of 920 nM.
